According to the Immune Epitope Database (IEDB):

How the values were obtained:
Assay in all cases: IEDB peptide-MHC binding, purified MHC/competitive/radioactivity; filed as Kd, often an IC50 or EC50 that approximates it; ≥ and ≤ were set here for values at or beyond the usual limits of such assays
HLA-A*03:01 = target: HLA-A*03:01
HLA-A*11:01 = target: HLA-A*11:01
HLA-A*31:01 = target: HLA-A*31:01
HLA-A*33:01 = target: HLA-A*33:01
HLA-A*68:01 = target: HLA-A*68:01
[1] = source organism: Mammarenavirus lassaense
[2] = source organism: Vaccinia virus WR
[3] = source organism: SARS coronavirus Tor2
[4] = source organism: Lassa virus Josiah
[5] = source organism: Mammarenavirus juninense
[6] = source organism: Dengue virus 2 Peru/IQT2913/1996
[7] = source organism: Dengue virus 4 Philippines/H241/1956
[8] = source organism: Dengue virus 3 Martinique/1243/1999
[9] = source organism: Dengue virus 1 Brazil/97-11/1997
[10] = source organism: Mammarenavirus guanaritoense
[11] = source organism: Mammarenavirus whitewaterense

Row | Sequence | Kd (HLA-A*03:01; [2]) [nM] | Kd (HLA-A*11:01; [2]) [nM] | Kd (HLA-A*31:01; [2]) [nM] | Kd (HLA-A*33:01; [2]) [nM] | Kd (HLA-A*68:01; [2]) [nM] | also measured
1 | QCWRSFLNK | – | – | – | – | – | Kd (HLA-A*03:01; [1]): 567 nM; Kd (HLA-A*11:01; [1]): 4950 nM; Kd (HLA-A*31:01; [1]): 880 nM; Kd (HLA-A*33:01; [1]): 743 nM; Kd (HLA-A*68:01; [1]): 13600 nM
2 | TMCTEETKR | ≥ 78000 | ≥ 77900 | 2980 | 12400 | 121 | –
3 | DSPLTLLIK | ≥ 78000 | 6250 | ≥ 55600 | ≥ 77700 | 1320 | –
4 | NFEALEATK | 4210 | 84.5 | 6740 | 1060 | 704 | –
5 | LMNVITLVYK | – | – | – | – | – | Kd (HLA-A*03:01; [3]): 10.6 nM; Kd (HLA-A*11:01; [3]): 23.7 nM; Kd (HLA-A*31:01; [3]): 742 nM; Kd (HLA-A*33:01; [3]): 5640 nM; Kd (HLA-A*68:01; [3]): 748 nM
6 | SLCFLLTQK | – | – | – | – | – | Kd (HLA-A*03:01; [3]): 25.6 nM; Kd (HLA-A*11:01; [3]): 22.7 nM; Kd (HLA-A*31:01; [3]): 231 nM; Kd (HLA-A*33:01; [3]): 5560 nM; Kd (HLA-A*68:01; [3]): 1200 nM
7 | EISSNDNAK | 16800 | 443 | ≥ 55600 | 9600 | 31 | –
8 | TSFYLISIFL | – | – | – | – | – | Kd (HLA-A*03:01; [4]): 8080 nM; Kd (HLA-A*33:01; [4]): ≥ 31100 nM
9 | VTISKDNLER | ≥ 39000 | 13.7 | 118 | 357 | 62.6 | –
10 | PVIVVPVIDR | 4820 | ≥ 21600 | 13200 | 9180 | 16.7 | –
11 | FLDKSIHLTK | 117 | 177 | 104 | 530 | 235 | –
12 | ANKQYIHCFR | – | – | – | – | – | Kd (HLA-A*03:01; [5]): 17800 nM; Kd (HLA-A*11:01; [5]): ≥ 46600 nM; Kd (HLA-A*31:01; [5]): 12.8 nM; Kd (HLA-A*33:01; [5]): 130 nM; Kd (HLA-A*68:01; [5]): 9810 nM
13 | GTSTDVVYR | – | – | – | – | – | Kd (HLA-A*03:01; [3]): 79.2 nM; Kd (HLA-A*11:01; [3]): 17.9 nM; Kd (HLA-A*31:01; [3]): 30.3 nM; Kd (HLA-A*33:01; [3]): 481 nM; Kd (HLA-A*68:01; [3]): 16.5 nM
14 | LINRFTMKHK | – | – | – | – | – | Kd (HLA-A*03:01; source organism: Dengue virus 2 Jamaica/1409/1983): 12.5 nM
15 | FLMSGRGIGK | – | – | – | – | – | Kd (HLA-A*03:01; [6]): 4.97 nM; Kd (HLA-A*11:01; [6]): 75.2 nM
16 | HLRVLFSIFY | 37.5 | 4970 | 1010 | 1850 | 2080 | –
17 | LFIDRGSIK | 1720 | 14300 | 2140 | 1110 | 1290 | –
18 | IFPGDKTSY | 11600 | 11700 | ≥ 56700 | ≥ 77700 | 17700 | –
19 | KMLLNRFTTR | – | – | – | – | – | Kd (HLA-A*31:01; [7]): 3.77 nM
20 | ALLRALRLTK | – | – | – | – | – | Kd (HLA-A*03:01; [3]): 3.17 nM; Kd (HLA-A*11:01; [3]): 24.5 nM; Kd (HLA-A*31:01; [3]): 233 nM; Kd (HLA-A*33:01; [3]): ≥ 70000 nM; Kd (HLA-A*68:01; [3]): 1790 nM

Row | Sequence | Kd (HLA-A*03:01; [2]) [nM] | Kd (HLA-A*11:01; [2]) [nM] | Kd (HLA-A*31:01; [2]) [nM] | Kd (HLA-A*33:01; [2]) [nM] | Kd (HLA-A*68:01; [2]) [nM] | also measured
21 | AFDISVNASK | 593 | 1230 | 1660 | ≥ 32300 | 1040 | –
22 | ALNHTKKWK | – | – | – | – | – | Kd (HLA-A*03:01; [3]): 784 nM; Kd (HLA-A*11:01; [3]): 5640 nM; Kd (HLA-A*31:01; [3]): 528 nM; Kd (HLA-A*33:01; [3]): ≥ 77700 nM; Kd (HLA-A*68:01; [3]): ≥ 77700 nM
23 | FLALGFFLRK | – | – | – | – | – | Kd (HLA-A*03:01; [8]): 29.1 nM
24 | CFKEASFSK | 966 | 1370 | 13 | 11.6 | 1230 | –
25 | ALEYLSELK | 988 | 178 | 8550 | ≥ 77700 | 3480 | –
26 | PISELSRLR | ≥ 78000 | 5400 | 484 | 919 | 679 | –
27 | AVFKDSFLR | 16.2 | 6.49 | 3.03 | 323 | 0.821 | –
28 | ISLGLILLK | – | – | – | – | – | Kd (HLA-A*03:01; [7]): 31.2 nM; Kd (HLA-A*11:01; [7]): 1.21 nM
29 | SSMVNGVVK | – | – | – | – | – | Kd (HLA-A*11:01; source organism: Dengue virus 1 Singapore/S275/1990): 73.4 nM
30 | KIIAVFDSK | 8.19 | 6.68 | 126 | 7970 | 474 | –
31 | DLISYGGGWR | – | – | – | – | – | Kd (HLA-A*33:01; [9]): 1390 nM
32 | TSEHGGRAYR | – | – | – | – | – | Kd (HLA-A*31:01; [8]): 72.4 nM
33 | SFNMLKRAR | – | – | – | – | – | Kd (HLA-A*31:01; [9]): ≥ 34200 nM; Kd (HLA-A*33:01; [9]): 10 nM
34 | GIFKNNDVR | 2210 | 1660 | 11500 | ≥ 28400 | 132 | –
35 | VSIILANERY | 12800 | 1420 | 8590 | 19000 | 3850 | –
36 | LCCSLDHSK | – | – | – | – | – | Kd (HLA-A*03:01; [10]): ≥ 33700 nM; Kd (HLA-A*11:01; [10]): ≥ 38400 nM; Kd (HLA-A*31:01; [10]): 811 nM; Kd (HLA-A*33:01; [10]): 7340 nM; Kd (HLA-A*68:01; [10]): ≥ 32700 nM
37 | AAISDYDYY | – | – | – | – | – | Kd (HLA-A*03:01; [3]): 698 nM; Kd (HLA-A*11:01; [3]): 1100 nM; Kd (HLA-A*31:01; [3]): 17500 nM; Kd (HLA-A*33:01; [3]): ≥ 77700 nM; Kd (HLA-A*68:01; [3]): 4810 nM
38 | TILLSDKGK | 1540 | 81.2 | 7390 | ≥ 44300 | 198 | –
39 | SLLTNDTTWI | – | – | – | – | – | Kd (HLA-A*03:01; [11]): ≥ 70000 nM; Kd (HLA-A*11:01; [11]): ≥ 69700 nM; Kd (HLA-A*31:01; [11]): 17000 nM; Kd (HLA-A*33:01; [11]): ≥ 70000 nM; Kd (HLA-A*68:01; [11]): ≥ 70100 nM
40 | NLEMIDERK | ≥ 70000 | 1110 | 9460 | ≥ 77700 | 49.4 | –
